Assays:
[1] = target: T1, Tau Isoform 352 (human, UniProt P10636 2-758); experiment: not named in the sentence (summary of antibody generation)
T1 construct: Obtained as a lyophilized purified isoform; also called Tau 352; tau352

[2] = target: T2, Tau Isoform 383 (human, UniProt P10636 2-758); experiment: ELISA, 100 ng or 50 ng coated tau isoform, antibody 1:1,000 and 1:10,000
T2 construct: Obtained as a lyophilized purified isoform; also called Tau 383; tau383
Protocol: More specifically, the 4G11 mAb was tested in an ELISA against 100 ng of each of the Tau isoforms at a 1:1,000 antibody dilution (FIG. 6A); against 100 ng of each of the Tau isoforms at a 1:10,000 antibody dilution (FIG. 6B); against 50 ng of each of the Tau isoforms at a 1:1,000 antibody dilution (FIG. 6C); and against 50 ng of each of the Tau isoforms at a 1:10,000 antibody dilution (FIG. 6D). […] The highest binding levels were found using 100 ng of the tau isoform with an antibody dilution of 1:1,000.
Antibody 4G11 was tested in an ELISA against 100 ng and 50 ng of the six human Tau isoform using antibodies dilutions of 1:1,000 and 1:10,000. Both 4G11 stored at −80° C. as well as a lyophilized form stored at ambient temperature were compared in this assay and the results are provided in FIGS. 6A-D (the left bar for each isoform are the results of the antibody stored at −80° C. and the right bar for each isoform is the lyophilized form, stored at 25° C.

[3] = target: T3, Tau Isoform 441 (human, UniProt P10636 2-758); experiment: screening of hybridoma cell lines; assay not given
T3 construct: Obtained as a lyophilized purified isoform; also called tau441
T3 sequence (P10636 other isoform, or with tags, fused parts or gaps limits assumed): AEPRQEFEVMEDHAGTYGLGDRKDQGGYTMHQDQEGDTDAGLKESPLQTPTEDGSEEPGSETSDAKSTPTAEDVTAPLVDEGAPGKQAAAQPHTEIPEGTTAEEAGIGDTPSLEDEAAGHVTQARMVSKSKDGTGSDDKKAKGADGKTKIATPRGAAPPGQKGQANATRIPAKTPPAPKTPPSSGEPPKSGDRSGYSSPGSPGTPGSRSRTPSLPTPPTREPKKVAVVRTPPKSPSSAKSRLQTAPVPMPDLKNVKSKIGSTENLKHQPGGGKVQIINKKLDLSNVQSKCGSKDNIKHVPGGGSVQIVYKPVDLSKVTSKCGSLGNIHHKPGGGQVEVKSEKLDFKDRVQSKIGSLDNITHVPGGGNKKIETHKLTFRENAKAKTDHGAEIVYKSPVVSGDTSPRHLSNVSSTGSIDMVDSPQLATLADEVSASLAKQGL

[4] = target: T4, Tau Isoform 412 (human, UniProt P10636 2-758); experiment: screening of hybridoma cell lines; assay not given
T4 construct: Obtained as a lyophilized purified isoform; also called tau412
T4 sequence (P10636 other isoform, or with tags, fused parts or gaps limits assumed): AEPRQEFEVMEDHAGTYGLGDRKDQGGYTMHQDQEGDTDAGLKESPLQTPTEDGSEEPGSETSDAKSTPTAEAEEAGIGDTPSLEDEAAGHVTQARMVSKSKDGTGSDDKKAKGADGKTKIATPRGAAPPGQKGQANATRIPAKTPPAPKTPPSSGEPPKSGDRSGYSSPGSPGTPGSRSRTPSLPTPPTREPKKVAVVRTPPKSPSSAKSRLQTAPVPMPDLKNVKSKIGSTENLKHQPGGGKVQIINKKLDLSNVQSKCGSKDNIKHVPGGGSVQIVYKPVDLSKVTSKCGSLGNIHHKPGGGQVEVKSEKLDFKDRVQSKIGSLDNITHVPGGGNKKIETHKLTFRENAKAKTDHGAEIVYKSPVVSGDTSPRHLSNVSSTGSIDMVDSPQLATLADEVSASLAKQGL

[5] = target: T5, Tau Isoform 381 (human, UniProt P10636 2-758); experiment: screening of hybridoma cell lines; assay not given
T5 construct: Obtained as a lyophilized purified isoform; also called tau381
T5 sequence (P10636 other isoform, or with tags, fused parts or gaps limits assumed): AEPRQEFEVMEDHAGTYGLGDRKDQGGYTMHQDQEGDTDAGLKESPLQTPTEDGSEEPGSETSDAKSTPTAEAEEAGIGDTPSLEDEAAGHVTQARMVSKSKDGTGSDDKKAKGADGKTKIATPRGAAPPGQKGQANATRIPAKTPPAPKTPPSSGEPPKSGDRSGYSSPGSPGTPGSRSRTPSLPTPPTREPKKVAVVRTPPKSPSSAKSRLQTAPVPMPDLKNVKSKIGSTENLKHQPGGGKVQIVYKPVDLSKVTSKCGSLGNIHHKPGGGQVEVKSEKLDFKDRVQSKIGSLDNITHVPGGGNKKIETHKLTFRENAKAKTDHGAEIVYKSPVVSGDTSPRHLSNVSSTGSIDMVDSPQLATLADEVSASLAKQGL

[6] = target: T6, Tau Isoform 410 (human, UniProt P10636 2-758); experiment: screening of hybridoma cell lines; assay not given
T6 construct: Obtained as a lyophilized purified isoform; also called Tau 410; tau410
T6 sequence (P10636 other isoform, or with tags, fused parts or gaps limits assumed): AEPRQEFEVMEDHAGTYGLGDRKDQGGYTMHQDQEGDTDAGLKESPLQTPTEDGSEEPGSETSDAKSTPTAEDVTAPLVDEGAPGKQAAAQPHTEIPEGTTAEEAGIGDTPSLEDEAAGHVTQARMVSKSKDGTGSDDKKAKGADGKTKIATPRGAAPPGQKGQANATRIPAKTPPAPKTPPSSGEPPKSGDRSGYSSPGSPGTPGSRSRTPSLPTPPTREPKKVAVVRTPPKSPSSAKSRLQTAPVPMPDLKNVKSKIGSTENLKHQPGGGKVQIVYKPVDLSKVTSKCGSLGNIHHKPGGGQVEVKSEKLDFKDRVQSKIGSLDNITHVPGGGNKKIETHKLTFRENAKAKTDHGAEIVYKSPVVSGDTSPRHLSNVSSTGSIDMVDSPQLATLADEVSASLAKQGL

[7] = target: T1, Tau Isoform 352; experiment: screening of hybridoma cell lines; assay not given
[8] = target: T2, Tau Isoform 383; experiment: screening of hybridoma cell lines; assay not given

Measured: binding result

T2 sequence (P10636 other isoform, or with tags, fused parts or gaps limits assumed): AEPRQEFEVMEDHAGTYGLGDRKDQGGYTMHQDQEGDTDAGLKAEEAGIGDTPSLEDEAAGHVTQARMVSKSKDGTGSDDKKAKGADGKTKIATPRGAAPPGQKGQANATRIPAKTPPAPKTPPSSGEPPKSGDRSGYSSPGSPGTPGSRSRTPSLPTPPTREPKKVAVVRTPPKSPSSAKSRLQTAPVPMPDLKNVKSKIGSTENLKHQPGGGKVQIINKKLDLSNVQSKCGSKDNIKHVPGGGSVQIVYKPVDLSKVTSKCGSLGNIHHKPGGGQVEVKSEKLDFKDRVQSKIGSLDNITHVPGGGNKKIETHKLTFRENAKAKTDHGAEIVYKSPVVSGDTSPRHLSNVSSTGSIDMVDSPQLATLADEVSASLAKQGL
T1 sequence (P10636 other isoform, or with tags, fused parts or gaps limits assumed): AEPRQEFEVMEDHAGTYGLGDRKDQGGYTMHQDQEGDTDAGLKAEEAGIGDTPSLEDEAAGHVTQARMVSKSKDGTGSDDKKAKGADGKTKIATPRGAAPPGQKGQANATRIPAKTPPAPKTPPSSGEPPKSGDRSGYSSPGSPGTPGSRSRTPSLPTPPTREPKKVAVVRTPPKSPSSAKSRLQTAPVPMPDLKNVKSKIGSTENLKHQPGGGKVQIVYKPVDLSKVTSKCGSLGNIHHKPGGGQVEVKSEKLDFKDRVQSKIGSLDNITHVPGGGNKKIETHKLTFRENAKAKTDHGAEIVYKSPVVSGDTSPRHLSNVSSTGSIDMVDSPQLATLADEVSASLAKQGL

B1: monoclonal antibody 4G11 (antibody, IgA, V domains shown)
VH: EVQLVESGGGLVQPKGSLKLSCAASGFTFNIYAMNWVRQAPGKGLEWVARIRSKSNNYATYYADSMKDRFTISRDDSQSMLYLQMNNLKTEDTAMYYCVRHGNYYFDYWGQGTTLTVSS
VL: ENVLTQSPAIMAASLGQKVTMTCSADSSVSSSYLNWYQQKSGASPKPLIHRTSNLASGVPARFSGSGSGTSYSLTISSVEAEDDATYYCQQWSGYPFIFTFGSGTKLEIK
notes: also called Tau 4G11; mAb 4G11
not listed: [7] | [8]
binds: all other assays above

B2: monoclonal antibody 1A6 (antibody, IgM, V domains shown)
VH: DVQLVESGGGLVQPGGSRKLSCAASGFTFSSFGMHWVRQVPEKGLEWVAYISSGSSTIYYADTVKGRFTISRDNPKNTLFLQMTSLRSEDTAMYYCASNQSPTGFAYWGQGTLVTVSA
VL: DVVMTQTPLSLPVSLGDQASISCRSSQSLVHSNGNTYLHWYLQKPGQSPKLLIYKVSNRFSGVPDRFSGSGSGTDFTLKISRVEAEDLGVYFCSQSTHVPLTFGAGTKLELK
notes: Mouse hybridoma antibody (h1A6, ATCC PTA-122038), from a mouse immunized with tau 352; also called Tau 1A6; mAb 1A6
not listed: [1] | [2]
binds: all other assays above

Reference: patent US20190211086A1 (RPEPTIDE, published 2019)
